The values below come from PMC3126804.

In test [1] the target is heat shock protein 60 (Hsp60) on human ileocecal epithelial HCT-8 cells (human (endogenous in HCT-8)) (UniProt P10809). The experiment in a line: adhesion of protein-coated fluospheres to cell monolayers; as the fluosphere assay on HCT-8 monolayers, but protein concentrations adjusted to have an equal number of molecules of each protein before immobilising on beads.
The target is the same in test [2]. The experiment in a line: adhesion of protein-coated fluospheres to cell monolayers; sulphate-modified fluospheres (1.0 µm) coated with 160 µg/mL of each purified protein (average bound 140 µg/ml) or 0.1% BSA, added to confluent HCT-8 monolayers (cells to spheres about 1:100), 2 h at 37°C, washed five times, read at 485/538 nm; also after pretreatment of cells with anti-Hsp60 MAb (1 µg/well, 1 h).

For test [3], the target named is LAP subdomain N2 (Gly224–Gly411) (Listeria monocytogenes (strain F4244)). The experiment in a line: ELISA; called immunofluorescence assay in microtiter plates: LAP proteins immobilised at 62.5–500 ng/100 µL (0.05 M sodium carbonate, pH 9.6) in Immulon 4HBX plates; Hsp60 100 µL of 2.4 µg/mL, RT 1.5 h; anti-Hsp60, HRP anti-mouse, fluorescent substrate Super Red; controls subtracted; KD from the 1-site binding equation (Prism 3).

For test [4], the target named is Listeria adhesion protein (LAP), full-length (Listeria monocytogenes). Described as above.

In the case of “LAP subdomain N2 (Gly224–Gly411) (domain or fragment)”, the figures for the mean fluorescence unit (fluorescence unit) in test [1] and in test [2] were 1360 and 1400, respectively.

Consider “Listeria adhesion protein (LAP), full-length (natural protein)”, for which the mean fluorescence unit (fluorescence unit) in test [1] is 1380; in test [2] it was 999.

Take “heat shock protein 60 (Hsp60), purified (from UniProt P10809 27-573) (natural protein)”: the dissociation constant Kd in test [3] came out at 9.51 nM; in test [4] it was 7.17 nM.
